The text below walks through data of patent US12195506B2, “Immunotherapy with A*01 restricted peptides and combination of peptides against cancers and related methods” (Immatics Biotechnologies GmbH, priority 2018, dated 2025).

For the test, the target named is HLA-A*01:01 (Homo sapiens, UniProt P04439, A114D/A174V/A182V/D101N/D185E/E176A/E190D/L180R/Q94H/R68K/S129P/T187R/V100A/V91M/W191G). Nature of the test: MHC binding assay: UV-ligand exchange, ELISA of stabilized MHC complexes (peptide exchange yield). Particulars: binding to HLA-A*01:01, UV-ligand exchange. In a few lines: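 Peptide–MHC complexes were formed by UV-induced exchange of a photocleavable ligand for the test peptide. Exchange yield was measured by streptavidin-capture ELISA of 100-fold diluted complexes, detected with HRP anti-β2m at A450. Refolded HLA-A*02:01/MLA-001 monomers at 15-500 ng/ml served as standards.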
A general note: An ELISA detects its analyte on a solid surface through an enzyme-linked reagent.
In the case of “222 (GSPDAVVSY; listed as Homo sapiens) [compound 222]”, the Peptide exchange entry is “+ (>10% =+)”. As for “223 (NAVDVVPSSF; listed as Homo sapiens) [compound 223]”, the entry is “+ (>10% =+)”; as for “224 (RTDEGDNRVW; listed as Homo sapiens) [compound 224]”, “++ (>20% = ++)”.

As to “225 (STDPNIVRK; listed as Homo sapiens) [compound 225]”, the Peptide exchange entry is listed as “+++ (>50 = +++)”.

Take “226 (QITPKHNGLY; listed as Homo sapiens) [compound 226]”: the Peptide exchange result was “++ (>20% = ++)”.

Regarding “227 (ESAPKEVSRY; listed as Homo sapiens) [compound 227]”, the Peptide exchange entry was “++ (>20% = ++)”.

On to “228 (KSFDDIAKY; listed as Homo sapiens) [compound 228]”, for which the Peptide exchange entry is “++ (>20% = ++)”. The same measure for “229 (MTDVFIDY; listed as Homo sapiens) [compound 229]”: “+++ (>50 = +++)”; for “230 (CVIETFHKY; listed as Homo sapiens) [compound 230]”: “+++ (>50 = +++)”. As for “231 (LLPLLVMAY; listed as Homo sapiens) [compound 231]”, the entry is “++ (>20% = ++)”. “232 (RYLNIVHATQLY; listed as Homo sapiens) [compound 232]”: the Peptide exchange entry is listed as “++ (>20% = ++)”. With “233 (RINSATGQY; listed as Homo sapiens) [compound 233]”, the Peptide exchange entry was “++ (>20% = ++)”. As for “234 (YTDLTTIQV; listed as Homo sapiens) [compound 234]”, the entry is “++++ (>75% = ++++)”. The same measure for “235 (SIEIDHTQY; listed as Homo sapiens) [compound 235]”: “++ (>20% = ++)”. The same measure for “236 (VLDSLLAQY; listed as Homo sapiens) [compound 236]”: “++++ (>75% = ++++)”; for “237 (AQEAAVFLTLY; listed as Homo sapiens) [compound 237]”: “+++ (>50 = +++)”; for “238 (ETDWGLLKGHTY; listed as Homo sapiens) [compound 238]”: “++++ (>75% = ++++)”. With “239 (SSERGSPIEKY; listed as Homo sapiens) [compound 239]”, the Peptide exchange result is “+++ (>50 = +++)”. As for “240 (EVLDSLLAQY; listed as Homo sapiens) [compound 240]”, the entry is “++ (>20% = ++)”; as for “241 (SLMVASLTY; listed as Homo sapiens) [compound 241]”, “++ (>20% = ++)”; as for “242 (GTNLPTLLW; listed as Homo sapiens) [compound 242]”, “+ (>10% =+)”. “243 (LTSEDTGAY; listed as Homo sapiens) [compound 243]”: the Peptide exchange result is on record as “+++ (>50 = +++)”. The same measure for “244 (VTKYIAGPY; listed as Homo sapiens) [compound 244]”: “++ (>20% = ++)”. Consider “245 (LSDNAANRY; listed as Homo sapiens) [compound 245]”, for which the Peptide exchange entry is “+++ (>50 = +++)”. On to “246 (ARLEGEIATY; listed as Homo sapiens) [compound 246]”, for which the Peptide exchange result was “++ (>20% = ++)”. The same measure for “247 (SMIRVGTNY; listed as Homo sapiens) [compound 247]”: “++ (>20% = ++)”; for “248 (VTDIDELGK; listed as Homo sapiens) [compound 248]”: “+++ (>50 = +++)”.

Consider “249 (GVGFTELEY; listed as Homo sapiens) [compound 249]”, for which the Peptide exchange entry is reported as “+++ (>50 = +++)”. As for “250 (GYVCNACGLY; listed as Homo sapiens) [compound 250]”, the entry is “++ (>20% = ++)”; as for “251 (GIEMTYETY; listed as Homo sapiens) [compound 251]”, “++ (>20% = ++)”. As for “252 (DTTSHTYLQY; listed as Homo sapiens) [compound 252]”, the entry is “++ (>20% = ++)”; as for “253 (YLESHGLAY; listed as Homo sapiens) [compound 253]”, “++++ (>75% = ++++)”. As for “254 (FLFNDALLY; listed as Homo sapiens) [compound 254]”, the entry is “++++ (>75% = ++++)”. For “255 (WELDSLEY; listed as Homo sapiens) [compound 255]”, the Peptide exchange result is on record as “++ (>20% = ++)”.

For the substance “256 (HAFESNNFIY; listed as Homo sapiens) [compound 256]”, the Peptide exchange entry is “++ (>20% = ++)”.

As for “257 (KSEMNVNMKY; listed as Homo sapiens) [compound 257]”, the Peptide exchange result is given as “++++ (>75% = ++++)”. As for “258 (RPSSVLTIY; listed as Homo sapiens) [compound 258]”, the Peptide exchange result is “+++ (>50 = +++)”.

On to “259 (APDEVVALL; listed as Homo sapiens) [compound 259]”, for which the Peptide exchange entry was “++ (>20% = ++)”. For “260 (KPTEDSANVY; listed as Homo sapiens) [compound 260]”, the Peptide exchange result is on record as “+++ (>50 = +++)”.

In the case of “261 (MTEGSTVNTEY; listed as Homo sapiens) [compound 261]”, the Peptide exchange entry is “++++ (>75% = ++++)”. The same measure for “262 (NVKHFLNDLY; listed as Homo sapiens) [compound 262]”: “+++ (>50 = +++)”; for “263 (DCMDTEGSYM; listed as Homo sapiens) [compound 263]”: “++ (>20% = ++)”; for “264 (YRDPVFVSL; listed as Homo sapiens) [compound 264]”: “++ (>20% = ++)”.

Turning to “265 (LSDIDSRYI; listed as Homo sapiens) [compound 265]”, the Peptide exchange entry is “++ (>20% = ++)”. In the case of “266 (LTDSFLLRF; listed as Homo sapiens) [compound 266]”, the Peptide exchange entry is recorded as “++++ (>75% = ++++)”. As for “267 (IVADDTVY; listed as Homo sapiens) [compound 267]”, the entry is “+++ (>50 = +++)”.

As for “268 (AILHHLYFY; listed as Homo sapiens) [compound 268]”, the Peptide exchange entry is “+ (>10% =+)”. The same measure for “269 (LPSPAATIWDY; listed as Homo sapiens) [compound 269]”: “+++ (>50 = +++)”. The same measure for “270 (DLKIDLAAQY; listed as Homo sapiens) [compound 270]”: “++ (>20% = ++)”. As for “271 (VAEPPVVCSY; listed as Homo sapiens) [compound 271]”, the entry is “++ (>20% = ++)”; as for “272 (IPQDECLRY; listed as Homo sapiens) [compound 272]”, “+++ (>50 = +++)”; as for “273 (CGPNEINHFY; listed as Homo sapiens) [compound 273]”, “++ (>20% = ++)”. For the substance “274 (YADIHGDLL; listed as Homo sapiens) [compound 274]”, the Peptide exchange entry is “+++ (>50 = +++)”. The same measure for “275 (ESDEMENLLTY; listed as Homo sapiens) [compound 275]”: “+++ (>50 = +++)”; for “276 (QITSFASGTSY; listed as Homo sapiens) [compound 276]”: “+++ (>50 = +++)”. The same measure for “277 (LPAPGFLFY; listed as Homo sapiens) [compound 277]”: “++ (>20% = ++)”; for “278 (AATVKSDIY; listed as Homo sapiens) [compound 278]”: “++ (>20% = ++)”; for “279 (LMTVLLKY; listed as Homo sapiens) [compound 279]”: “+++ (>50 = +++)”. As for “280 (TTEMVSNESVDY; listed as Homo sapiens) [compound 280]”, the entry is “++++ (>75% = ++++)”; as for “281 (YPDLSELLM; listed as Homo sapiens) [compound 281]”, “++ (>20% = ++)”. For the substance “282 (QAMPSWPTAAY; listed as Homo sapiens) [compound 282]”, the Peptide exchange result is “++ (>20% = ++)”. Regarding “283 (ETILVSSSY; listed as Homo sapiens) [compound 283]”, the Peptide exchange entry is “++ (>20% = ++)”.

“284 (TCSHTFVYY; listed as Homo sapiens) [compound 284]”: the Peptide exchange result was “++ (>20% = ++)”. For the substance “285 (VLPHHSEGACVY; listed as Homo sapiens) [compound 285]”, the Peptide exchange entry is “+++ (>50 = +++)”.

Take “286 (ATDMEGNLNY; listed as Homo sapiens) [compound 286]”: the Peptide exchange result is listed as “+++ (>50 = +++)”. On to “287 (ENSIEDLQY; listed as Homo sapiens) [compound 287]”, for which the Peptide exchange entry is listed as “+++ (>50 = +++)”. The same measure for “288 (TEEKFVSY; listed as Homo sapiens) [compound 288]”: “+ (>10% =+)”; for “289 (YTSHEDIGY; listed as Homo sapiens) [compound 289]”: “++++ (>75% = ++++)”. The same measure for “290 (GQFTGTAGACRY; listed as Homo sapiens) [compound 290]”: “++ (>20% = ++)”; for “291 (TSDVTGSLTY; listed as Homo sapiens) [compound 291]”: “++++ (>75% = ++++)”; for “292 (VLDFAPPGASAY; listed as Homo sapiens) [compound 292]”: “++++ (>75% = ++++)”. The same measure for “294 (MMEMEGMY; listed as Homo sapiens) [compound 294]”: “+++ (>50 = +++)”.
